Where no end group is shown, it is not given here.

As usually defined, the Kd is the constant that tells how readily two partners part at equilibrium. High values mean weaker binding, low ones tighter binding.

In this experiment the target is mouse importin α2 lacking the importin-β binding domain (mouse IMPα2ΔIBB) (mouse, UniProt P52293 70-529). Description: fluorescence polarisation. As to conditions: both partners purified. A general note: In fluorescence polarisation assays a small probe gives low polarisation when free and higher when bound to something large.

B1: HaHV1 UL36h NLS peptide (residues 1491-1500), FITC/Ahx-labelled (peptide)
peptide: ETKKRRRILE
modifications: not fully specified (N-terminus); also: FITC/Ahx-labelled, position not given here
notes: also called HaHV1 NLS; HaHV1-NLS
Molecule B1 came in with a Kd of 609 nM.
